Here are results for one molecule from paper PMC9122601, “A widespread family of WYL-domain transcriptional regulators co-localizes with diverse phage defence systems and islands”.

The data set has as its target T1, His6-BrxR-R17A (Escherichia fergusonii (plasmid pEFER), UniProt B7L3Y3 14-308, R30A).
T1 sequence: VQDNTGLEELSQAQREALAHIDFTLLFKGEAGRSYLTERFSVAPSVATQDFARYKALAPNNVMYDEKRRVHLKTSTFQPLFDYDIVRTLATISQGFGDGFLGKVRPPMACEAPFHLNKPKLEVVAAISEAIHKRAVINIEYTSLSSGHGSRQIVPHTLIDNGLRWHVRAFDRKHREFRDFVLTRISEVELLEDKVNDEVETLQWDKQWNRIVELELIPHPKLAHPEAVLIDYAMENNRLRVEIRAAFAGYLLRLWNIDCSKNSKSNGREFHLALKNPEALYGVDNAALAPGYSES
Kind of data set: EMSA; only non-specific binding at high protein; EMSA: 10 mM Tris-HCl pH 7.9, 150 mM KCl, 0.5 mM EDTA, 0.2 mM DTT, 0.1% Triton X-100, 13% glycerol (1x of 5x buffer), 1 ug poly(dI-dC) per 10 ul, 2500 fmol probe, 25 C 30 min; 7% native PAGE in 0.5x TBE. The following applies: protein: recombinant; tags: N-terminal His6; chain copies: 2; label: 5' 6-FAM on reverse strand (primer TRB1068); blunt.

B1: WT IR1-IR2 probe (R7, R-BOX1) (dsDNA)
DNA 1: GACGACTTGTTGATACTATGAAACCTACTGAAAAACAGTAGGTTGCTTGATGGCATTCAATCGATGGCTTAAGCTTTTGTCAGTGCGCA
DNA 2: TGCGCACTGACAAAAGCTTAAGCCATCGATTGAATGCCATCAAGCAACCTACTGTTTTTCAGTAGGTTTCATAGTATCAACAAGTCGTC
Take B1: the binding result was “no binding”.
